Experimental data: patent US20230049152A1

Target: human CCR8 (human) (UniProt P51685)
Assay: cell-based or functional assay

- ADCC reporter EC50, mFcgRIV Jurkat cells with CHO/hCCR8 (FIG. 11D): 0.26 nM
- CCL1 blocking potency IC50, Ca2+ influx: 17.6 nM
- induction fold at about 1 nM antibody, mFcgRIV Jurkat NFAT-luciferase reporter: > 12 fold
- induction fold plateau at about 40 nM antibody, mFcgRIV Jurkat NFAT-luciferase reporter: 13 fold
B1: murine anti-human CCR8 mAb 433H (BD Biosciences) (antibody, from another filing, mouse IgG2a, V domains shown)
VH: EVQLVETGGGLVQPKGSLRLSCAASGFPFNTFAMNWVRQAPGKGLEWLARIRSKSNNYATYYADSVKDRFTISRDDSRRMLYLLMNNVKFEDTAIYYCVRGKENNYGYAMDYWGQGTSVTVSS
VL: DIVMTQAAPSVPVTPGESVSISCRSSQSLLHSNGNTYLYWFLQRPGQSPQLLIYRMSNLASGVPDRFSGSGSGTAFTLRISRVEAEDVGVYYCMQHLEYPFTFGIGTKLELKR
